For the data set, the system named is O=C(O)C[C@H](O)C(=O)O. As to the kind of experiment: purified protein. The settings on record: L-malate dehydration.
[1] abbreviates: 100 mM Tris-HCl pH 7.5, 50 °C, pH 7.5.
Setting [2] is: 100 mM Tris-HCl pH 8.5, 52 °C, pH 8.5.

The term Km denotes the substrate concentration at which the rate is half of its maximum. As a reminder, the kcat is the maximal rate divided by the concentration of active sites. As a reminder, the kcat/Km is the turnover number divided by the Michaelis constant.

TeFum (Thermosynechococcus vestitus BP-1), sequence (chain, as listed by the source): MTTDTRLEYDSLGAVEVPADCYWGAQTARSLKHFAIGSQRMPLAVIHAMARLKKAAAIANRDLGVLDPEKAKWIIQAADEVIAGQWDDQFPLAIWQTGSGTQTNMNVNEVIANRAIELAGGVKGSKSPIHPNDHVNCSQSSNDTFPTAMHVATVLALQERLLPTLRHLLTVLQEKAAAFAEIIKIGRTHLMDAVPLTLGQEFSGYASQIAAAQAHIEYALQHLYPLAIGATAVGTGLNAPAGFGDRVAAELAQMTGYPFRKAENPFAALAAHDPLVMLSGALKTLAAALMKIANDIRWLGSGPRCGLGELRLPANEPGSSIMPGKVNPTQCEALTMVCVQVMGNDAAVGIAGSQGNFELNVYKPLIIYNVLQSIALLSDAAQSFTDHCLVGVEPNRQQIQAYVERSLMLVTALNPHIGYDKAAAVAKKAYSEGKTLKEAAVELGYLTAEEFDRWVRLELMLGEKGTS
CmFUM (Cyanidioschyzon merolae strain 10D), sequence (chain, as listed by the source): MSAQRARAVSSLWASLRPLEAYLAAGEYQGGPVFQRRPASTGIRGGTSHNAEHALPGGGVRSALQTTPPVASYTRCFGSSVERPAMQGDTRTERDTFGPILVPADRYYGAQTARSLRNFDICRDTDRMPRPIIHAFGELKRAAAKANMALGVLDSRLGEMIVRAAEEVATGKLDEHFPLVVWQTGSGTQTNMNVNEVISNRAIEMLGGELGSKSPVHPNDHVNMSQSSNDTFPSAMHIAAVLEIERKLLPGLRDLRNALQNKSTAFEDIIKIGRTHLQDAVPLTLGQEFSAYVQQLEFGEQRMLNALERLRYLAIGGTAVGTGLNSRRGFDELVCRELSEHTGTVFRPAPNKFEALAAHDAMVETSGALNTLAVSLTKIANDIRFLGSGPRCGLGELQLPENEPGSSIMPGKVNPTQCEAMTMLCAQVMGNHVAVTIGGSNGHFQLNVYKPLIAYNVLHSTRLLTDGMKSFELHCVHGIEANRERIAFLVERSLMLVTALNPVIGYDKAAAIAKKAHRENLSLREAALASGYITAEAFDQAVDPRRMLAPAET

Turning to “TeFum (Thermosynechococcus vestitus BP-1)”, under setting [1], the Km is 0.20 ± 0.01 mM, the kcat was determined as 15 s⁻¹ and the specificity constant (kcat/Km) amounted to 76000 M⁻¹ s⁻¹.
On to “CmFUM (Cyanidioschyzon merolae strain 10D)”, for which, under setting [2], the Km is recorded as 1.49 ± 0.12 mM, the kcat worked out at 244 s⁻¹ and the kcat/Km was found to be 164000 M⁻¹ s⁻¹.
